Source: paper PMC9488787
Like-named read-outs stand apart in the source and are kept apart here.

With “Hrq1: Hrq1-7KR (K164R, K219R, K221R, K366R, K839R, K872R, K938R)” the degradation_or_half_life (ubiquitination at K164) was “decreases”, the expression_or_secretion (ubiquitination at K164) was “no change” and the degradation_or_half_life (ubiquitination at K219) was “decreases”. For the same substance, the expression_or_secretion (ubiquitination at K219) was “no change”, the degradation_or_half_life (ubiquitination at K221) was “decreases” and the expression_or_secretion (ubiquitination at K221) was “no change”. The degradation_or_half_life (ubiquitination at K366) was “decreases”, the expression_or_secretion (ubiquitination at K366) was “no change” and the degradation_or_half_life (ubiquitination at K839) was “decreases”. For the same substance, the expression_or_secretion (ubiquitination at K839) was “no change”, the degradation_or_half_life (ubiquitination at K872) was “decreases” and the expression_or_secretion (ubiquitination at K872) was “no change”. For the same substance, the degradation_or_half_life (ubiquitination at K938) was “decreases” and the expression_or_secretion (ubiquitination at K938) was “no change”.
